Results on 1 molecule are retold here after patent publication US20200079842A1 (NETRIS PHARMA, published 2020).

Test [1] concerns the target T1, human netrin-1 (human, UniProt O95631 25-604, limits assumed).
T1 construct: also called NET1; netrin-I
In words: SPR (Biacore T100), 4C11 captured, netrin-1 as analyte, 25° C. Here is the method: (§1) Murine 4C11 (IgG1) antibody (SEQ ID NO: 12 and 13) was captured via amine coupled capture molecules. A series with increasing concentrations of netrin-1 was injected. Chip surface with amine coupled capture molecule alone was used as reference control surface for correction of possible buffer-effects or non-specific binding of netrin-I.
(§2) Analyte sample: Classical concentration series were measured at a flow rate of 50 μL/min by consecutive injection of the analyte in 5 or 6 increasing concentrations (c 2-164 nM). Running buffer: 20 mM Hepes pH7.4, 600 mM NaCl, 0.005% TWEEN® 20. The analyte was injected for 3 minutes followed by a dissociation phase of 90 s.
(§3) Kinetic parameters were then calculated by using the usual double referencing (control reference: binding of analyte to capture molecule; Flow Cell: netrin-1 concentration “0” as Blank) and calculation with model ‘titration kinetics 1: 1 binding.

Test [2] deals with T2, FLAG-tagged netrin-1 (Adipogen) (human, UniProt O95631 25-604, limits assumed).
T2 construct: Bought protein; also called FLAG®-tagged Netrin-1 (APOTECH); not shown: FLAG tag
Briefly: competition ELISA: FLAG-netrin-1 binding to coated UNC5B-Fc. Here is the method: (§4) After three washings with 300 μL of PBS-0.05% TWEEN®-20 (PBS-T), the plate was blocked by addition of 100 μL of PBS-2% BSA and incubated 1 hour at room temperature. After three washings with 300 μL of PBS-T, the plate was incubated for 1 hour at room temperature, with 100 μL of PBS-1% BSA containing 50 ng/mL FLAG®-tagged netrin-1 (Adipogen) and various quantities (0.2 ng to 3000 ng) of the 4C11 antibody. After three washings with 300 μL of PBS-T, 100 μL of an anti-FLAG® M2 monoclonal antibody conjugated to horse radish peroxidase (HRP) (Sigma A8592) diluted 1/5,000 in PBST-1% BSA was added and the plate was incubated 1 hour at room temperature. After three washings with 300 μL of PBS-T, 100 μL of a luminescent substrate of HRP (ECL western blotting substrate, PIERCE) is added. After 5 to 10 minutes, the luminescence was read on a Tecan Infinite F-500 luminometer.

Test [3] concerns the target T2, FLAG-tagged netrin-1 (Adipogen). Briefly: competition ELISA: FLAG-tagged netrin-1 with rising 4C11 on coated UNC5B-Fc, bound netrin-1 detected with anti-FLAG-HRP, luminescence. The method, then: FIG. 2: Inhibition of Netrin-1 binding onto UNC5B-Fc by 4C11. FLAG®-tagged Netrin-1 (APOTECH) in presence of various concentrations of 4C11 were incubated onto 96-well microtiter plate coated with UNC5B-Fc (Netris). Bound Netrin-1 was detected using an anti-FLAG® antibody conjugated with horseradish peroxidase (Sigma) and a chemiluminescent substrate (PIERCE ECL western blotting substrate). The luminescence was read on a Tecan Infinite F-500 luminometer.
as §4

For test [4], the target named is T3, His-tagged Netrin-1 (R&D 6419-N1) (human, UniProt O95631 25-604).
T3 construct: Bought protein; also called adsorbed netrin-1; not shown: His tag
Briefly: ELISA, coated His-tagged netrin-1, luminescence. Here is the method: White 96-well microtiter plate (Costar 3912 Corning) was incubated overnight at 4° C. with 100 ng of His-tagged Netrin-1 (R&D 6419-N1) in 100 μL of Phosphate buffer saline (PBS). After three washings with 300 μL of PBS-0.05% TWEEN®-20 (PBS-T), the plate was blocked by addition of 100 μL of PBS-3% BSA and incubated 1 hour at room temperature. After three washings with 300 μL of PBS-T, the plate was incubated with various quantities (10 ng to 1200 ng) of the anti-netrin-1 antibody. After three washings with 300 μL of PBS-T, 100 μL of a relevant secondary antibody conjugated to horse radish peroxidase (e.g. goat anti-human IgG (Fc) Sigma A0170 or goat anti-mouse IgG light chain specific (kappa) Jackson Immunoresearch 115-035-174) diluted 1/10,000 in PBST-3% BSA was added and the plate was incubated 1 hour at room temperature. After three washings with 300 μL of PBS-T, 100 μL of a luminescent substrate of HRP (ECL western blotting substrate, PIERCE) is added. After 5 to 10 minutes, the luminescence was read on a Tecan Infinite F-500 luminometer.

Test [5] concerns the target T2, FLAG-tagged netrin-1 (Adipogen). In words: ELISA-type assay, netrin-1 coated on the plate (legend paragraph 28: FLAG-tagged Netrin-1, APOTECH; Example 3: His-tagged Netrin-1, R&D), anti-mouse IgG-HRP, luminescence. Here is the method: FIG. 1: ELISA binding assay of murine 4C11 to human Netrin-1. Various concentrations of 4C11 were incubated onto 96-well microtiter plate coated with FLAG®-tagged Netrin-1 (APOTECH). Bound 4C11 was detected using a goat anti-mouse IgG conjugated with horseradish peroxidase (Jackson Immunoresearch) and a chemiluminescent substrate (PIERCE ECL western blotting substrate). The luminescent was read on a Tecan Infinite F-500 luminometer.

For test [6], the target named is T1, human netrin-1. Briefly: SPR (Biacore T100), 4C11 captured, netrin-1 as analyte, 25° C.; Exp 1. The method, then: as §1, §2, §3

Where “and” joins values, the source holds several entries; their conditions need not be identical. Equal entries are not always repeated.

B1: murine 4C11 (IgG1) antibody (antibody, V domains shown)
VH: QAYLQQSGAELVRPGASVKMSCKASGYTFTSYNMHWVKQTPRQGLEWIGAIYPGNGDTSYNQKFKGKATLTVDKSSSTAYMQLSSLTSEDSAVYFCARGGTGFAYWGQGTLVTVSA
VL: SIVMTQTPKFLLVSAGDRVTITCKASQSVSNDVAWYQQKPGQSPKLLIYYASNRYTGVPDRFTGSGYGTDFTFTISTVQAEDLAVYFCQQDYSSPWTFGGGTKLEIKR
notes: also called NET1-M-mAb; 4C11 murine IgG1
For B1, in the test with human netrin-1 [1], the Kd is 13.3 nM and 12.7 nM; the kon was 140000 M⁻¹ s⁻¹. For the same molecule, the IC50 in test [2] is 0.075 µg/mL and 0.502 nM. Also, in test [3], the “IC50 (read off the curve)” value was ~0.6 nM. Moreover, the EC50 in test [4] is 0.057 µg/mL and 0.38 nM. The “EC50 (read off the curve)” value in test [5] was ~0.03 µg/mL. For the same molecule, the koff with human netrin-1 [6] was determined as 0.0018 s⁻¹.
